From patent US20020099179A1

Molecular target: human CD4 antigen (human) (UniProt P01730)
Assay: competition with F1-OKT4A tracer on HPB-ALL cells, flow cytometry

| Substance | Log conc. competitor (pM) at 50% inhibition |
| --- | --- |
| chimeric OKT4A (chimeric light chain and chimeric heavy chain) (antibody) | 2.9 log pM |
| murine OKT4A (antibody) | 2.4 log pM |
